Values joined by “and” are separate entries in the source; they are usually repeats but may differ in a detail not shown here. Identical values can stand only once.
Columns and labels:
human mononuclear cells = experiment: LPS-induced tissue factor by human mononuclear cells (clotting assay); assay type: cell-based
Method: Human mononuclear cells were separated from citrated peripheral blood by centrifugation over Sodium-metrizoate-Ficoll (lymphocyte Separation Medium, Japan Antibody Institute, Gumma). The resulting mixed mononuclear cell suspension was washed 3 times with RPMI 1640 media. Cell suspension (1×10^6 /ml) was stimulated with LPS for 16 to 18 hr.
Veronal buffered saline (VBS) was added to the cell pellet, lysed by 3 cycles of freeze/thaw and sonicated for 10 sec with a hand-held sonicator microbe (Handy Sonic, model UR-20P, Tomy Seiko LTD, Tokyo). Tissue factor activity was tested in modified unactivated partial thromboplastin time (7). One tenth ml of cell lysate (1×10^6 /ml) was preincubated with mouse plasma at 37° C. for 3 min. Then 0.1 ml of 25 mM-CaCl2 which contains phospholipid was added to the mixture and clotting time was measured using a fibrometer (Bio Quest Division, Becton Dickinson, Cokeysville, USA). A standard curve obtained from serial two-fold dilutions of rabbit brain thromboplastic (Simplastin, Ono Pharmaceutical Co.) was used to transpose tissue factor activity into arbitrary tissue factor units (1 μg/ml) suspension of rabbit brain was assigned a value of 1,000 units).
The mean tissue factor units+standard error was determined from three to four samples. Student's t test for unpair data was used to determine the statistically significant differences. A two-tailed P value of <0.05 was considered significant. […]

[1] = tested on: galactosamine-sensitized mice; assay type: in vivo; details: CAP18 40 μg IP alone, no galactosamine, no Re-LPS; groups of 10 mice
Text: Galactosamine sensitizes mice to the lethal effects of LPS by a factor 1000 or more. CAP18 and LPS were mixed and injected IP into sensitized mice. CAP18 can neutralize the lethal effects of LPS in this model of endotoxemia (see Table 8).

cysteine protease = experiment: Cysteine protease activity of purified human CAP18; assay type: biochemical
[2] = LPS 0.1 μg/ml, peptide HA units: RNIP 2, CAP-18 1, HP-1 4, HP-2 2

B1: CAP18: cationic protein from rabbit granulocytes, 16.6 kD, SEQ ID NO:4 (protein)
chain: METHKHGPSLAWWSLLLLLLGLLMPPAIAQDLTYREAVLRAVDAFNQQSSEANLYRLLSMDPQQLEDAKPYTPQPVSFTVKETECPRTTWKLPEQCDFKEDGLVKRCVGTVTRYQAWDSFDIRCNRAQESPEPTGLRKRLRKFRNKIKEKLKKIGQKIQGLLPKLAPRTDY
In the case of B1, the “Inhibition (%)” value (human mononuclear cells; [2]) is reported as 30% and 35%, the “Tissue Factor Units, value in parentheses (ratio to unstimulated control)” value (human mononuclear cells; [2]) is reported as 9.9 and the “Δ Units (%)” value (human mononuclear cells; LPS 0.1 μg/ml, relative to LPS alone (100)) is reported as 70% and 65%. For the same molecule, the “Tissue Factor Units, value in parentheses (ratio to unstimulated control)” value (human mononuclear cells; no LPS, peptide alone) was 1.2, the “Tissue factor units” value (human mononuclear cells; no LPS, peptide alone) was 583 ± 178 Units ×10^3 /3.6 × 10^4 cells and the “Δ Units” value (human mononuclear cells; no LPS, peptide alone) was 235 Units. The “Lethality (%)” value [1] was 0%.

B2: human CAP18: human form of CAP18, amino acid sequence SEQ ID NO:2 (protein)
chain: MKTQRDGHSLGRWSLVLLLLGLVMPLAIIAQVLSYKEAVLRAIDGINQRSSDANLYRLLDLDPRPTMDGDPDTPKPVSFTVKETVCPRTTQQSPEDCDFKKDGLVKRCMGTVTLNQARGSFDISCDKDNKRFALLGDFFRKSKEKIGKEFKRIVQRIKDFLRNLVPRTES
For B2, the “cysteine protease activity (in words)” value (cysteine protease) was “significant cysteine protease activity”.

Source: patent US6103888A, “Mammalian cationic proteins having lipopolysaccharide binding and anti-coagulant activity” (priority 1999, dated 2000)
